This note sets out measurements from article PMC8982573 (EMBO Reports, 2022).

By Kd is commonly meant the concentration at which binding is half-saturated.

In the test the target is SARS-CoV-2 spike receptor-binding domain fused to Venus YFP (RBD-vYFP) (SARS-CoV-2, UniProt P0DTC2 330-526, chemically biotinylated using NHS-Biotin). In words: grating-coupled interferometry (GCI). To be noted: both partners purified.

B1: Sybody Sb#15 (VHH)
VHH: QVQLVESGGGLVQAGGSLRLSCAASGFPVKNFEMEWYRKAPGKEREWVAAIQSGGVETYYADSVKGRFTISRDNAKNTVYLQMNSLKPEDTAVYYCFVYVGRSYIGQGTQVTVS
notes: also called Sb#y15; source: E. coli MC1061, periplasm, purified (Ni-NTA, SEC)
Take B1: the Kd worked out at 14.4 nM.
